Test results: patent publication US20090099029

T1: Bovine, dephosphorylated, Myelin Basic Protein (MBP), P02687
T1 chain: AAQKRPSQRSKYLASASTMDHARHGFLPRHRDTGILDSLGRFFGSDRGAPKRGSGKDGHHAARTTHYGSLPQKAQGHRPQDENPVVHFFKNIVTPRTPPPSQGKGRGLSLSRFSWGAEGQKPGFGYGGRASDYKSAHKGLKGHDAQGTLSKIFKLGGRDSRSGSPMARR

B1: LYNA (protein)
chain: MGCIKSKGKDSLSDDGVDLKTQPVRNTERTIYVRDPTSNKQQRPVPESQLLPGQRFQTKDPEEQGDIVVALYPYDGIHPDDLSFKKGEKMKVLEEHGEWWKAKSLLTKKEGFIPSNYVAKLNTLETEEWFFKDITRKDAERQLLAPGNSAGAFLIRESETLKGSFSLSVRDFDPVHGDVIKHYKIRSLDNGGYYISPRITFPCISDMIKHYQKQADGLCRRLEKACISPKPQKPWDKDAWEIPRESIKLVKRLGAGQFGEVWMGYYNNSTKVAVKTLKPGTMSVQAFLEEANLMKTLQHDKLVRLYAVVTREEPIYIITEYMAKGSLLDFLKSDEGGKVLLPKLIDFSAQIAEGMAYIERKNYIHRDLRAANVLVSESLMCKIADFGLARVIEDNEYTAREGAKFPIKWTAPEAINFGCFTIKSDVWSFGILLYEIVTYGKIPYPGRTNADVMTALSQGYRMPRVENCPDELYDIMKMCWKEKAEERPTFDYLQSVLDDFYTATEGQYQQQP
B2: FES (protein)
chain: MGFSSELCSPQGHGVLQQMQEAELRLLEGMRKWMAQRVKSDREYAGLLHHMSLQDSGGQSRAISPDSPISQSWAEITSQTEGLSRLLRQHAEDLNSGPLSKLSLLIRERQQLRKTYSEQWQQLQQELTKTHSQDIEKLKSQYRALARDSAQAKRKYQEASKDKDRDKAKDKYVRSLWKLFAHHNRYVLGVRAAQLHHQHHHQLLLPGLLRSLQDLHEEMACILKEILQEYLEISSLVQDEVVAIHREMAAAAARIQPEAEYQGFLRQYGSAPDVPPCVTFDESLLEEGEPLEPGELQLNELTVESVQHTLTSVTDELAVATEMVFRRQEMVTQLQQELRNEEENTHPRERVQLLGKRQVLQEALQGLQVALCSQAKLQAQQELLQTKLEHLGPGEPPPVLLLQDDRHSTSSSEQEREGGRTPTLEILKSHISGIFRPKFSLPPPLQLIPEVQKPLHEQLWYHGAIPRAEVAELLVHSGDFLVRESQGKQEYVLSVLWDGLPRHFIIQSLDNLYRLEGEGFPSIPLLIDHLLSTQQPLTKKSGVVLHRAVPKDKWVLNHEDLVLGEQIGRGNFGEVFSGRLRADNTLVAVKSCRETLPPDLKAKFLQEARILKQYSHPNIVRLIGVCTQKQPIYIVMELVQGGDFLTFLRTEGARLRVKTLLQMVGDAAAGMEYLESKCCIHRDLAARNCLVTEKNVLKISDFGMSREEADGVYAASGGLRQVPVKWTAPEALNYGRYSSESDVWSFGILLWETFSLGASPYPNLSNQQTREFVEKGGRLPCPELCPDAVFRLMEQCWAYEPGQRPSFSTIYQELQSIRKRHR
B3: FER (protein)
chain: KSGVVLLNPIPKDKKWILSHEDVILGELLGKGNFGEVYKGTLKDKTSVAVKTCKEDLPQELKIKFLQEAKILKQYDHPNIVKLIGVCTQRQPVYIIMELVSGGDFLTFLRRKKDELKLKQLVKFSLDAAAGMLYLESKNCIHRDLAARNCLVGENNVLKISDFGMSRQEDGGVYSSSGLKQIPIKWTAPEALNYGRYSSESDVWSFGILLWETFSLGVCPYPGMTNQQAREQVERGYRMSAPQHCPEDISKIMMKCWDYKPENRPKFSELQKELTIIKRKLT
B4: BTK (protein)
chain: MAAVILESIFLKRSQQKKKTSPLNFKKRLFLLTVHKLSYYEYDFERGRRGSKKGSIDVEKITCVETVVPEKNPPPERQIPRRGEESSEMEQISIIERFPYPFQVVYDEGPLYVFSPTEELRKRWIHQLKNVIRYNSDLVQKYHPCFWIDGQYLCCSQTAKNAMGCQILENRNGSLKPGSSHRKTKKPLPPTPEEDQILKKPLPPEPAAAPVSTSELKKVVALYDYMPMNANDLQLRKGDEYFILEESNLPWWRARDKNGQEGYIPSNYVTEAEDSIEMYEWYSKHMTRSQAEQLLKQEGKEGGFIVRDSSKAGKYTVSVFAKSTGDPQGVIRHYVVCSTPQSQYYLAEKHLFSTIPELINYHQHNSAGLISRLKYPVSQQNKNAPSTAGLGYGSWEIDPKDLTFLKELGTGQFGVVKYGKWRGQYDVAIKMIKEGSMSEDEFIEEAKVMMNLSHEKLVQLYGVCTKQRPIFIITEYMANGCLLNYLREMRHRFQTQQLLEMCKDVCEAMEYLESKQFLHRDLAARNCLVNDQGVVKVSDFGLSRYVLDDEYTSSVGSKFPVRWSPPEVLMYSKFSSKSDIWAFGVLMWEIYSLGKMPYERFTNSETAEHIAQGLRLYRPHLASEKVYTIMYSCWHEKADERPTFKILLSNILDVMDEES
B5: ABL2(ARG) (protein)
chain: MGQQVGRVGEAPGLQQPQPRGIRGSSAARPSGRRRDPAGRTTETGFNIFTQHDHFASCVEDGFEGDKTGGSSPEALHRPYGCDVEPQALNEAIRWSSKENLLGATESDPNLFVALYDFVASGDNTLSITKGEKLRVLGYNQNGEWSEVRSKNGQGWVPSNYITPVNSLEKHSWYHGPVSRSAAEYLLSSLINGSFLVRESESSPGQLSISLRYEGRVYHYRINTTADGKVYVTAESRFSTLAELVHHHSTVADGLVTTLHYPAPKCNKPTVYGVSPIHDKWEMERTDITMKHKLGGGQYGEVYVGVWKKYSLTVAVKTLKEDTMEVEEFLKEAAVMKEIKHPNLVQLLGVCTLEPPFYIVTEYMPYGNLLDYLRECNREEVTAVVLLYMATQISSAMEYLEKKNFIHRDLAARNCLVGENHVVKVADFGLSRLMTGDTYTAHAGAKFPIKWTAPESLAYNTFSIKSDVWAFGVLLWEIATYGMSPYPGIDLSQVYDLLEKGYRMEQPEGCPPKVYELMRACWKWSPADRPSFAETHQAFETMFHDSSISEEVAEELGRAASSSSVVPYLPRLPILPSKTRTLKKQVENKENIEGAQDATENSASSLAPGFIRGAQASSGSPALPRKQRDKSPSSLLEDAKETCFTRDRKGGFFSSFMKKRNAPTPPKRSSSFREMENQPHKKYELTGNFSSVASLQHADGFSFTPAQQEANLVPPKCYGGSFAQRNLCNDDGGGGGGSGTAGGGWSGITGFFTPRLIKKTLGLRAGKPTASDDTSKPFPRSNSTSSMSSGLPEQDRMAMTLPRNCQRSKLQLERTVSTSSQPEENVDRANDMLPKKSEESAAPSRERPKAKLLPRGATALPLRTPSGDLAITEKDPPGVGVAGVAAAPKGKEKNGGARLGMAGVPEDGEQPGWPSPAKAAPVLPTTHNHKVPVLISPTLKHTPADVQLIGTDSQGNKFKLLSEHQVTSSGDKDRPRRVKPKCAPPPPPVMRLLQHPSICSDPTEEPTALTAGQSTSETQEGGKKAALGAVPISGKAGRPVMPPPQVPLPTSSISPAKMANGTAGTKVALRKTKQAAEKISADKISKEALLECADLLSSALTEPVPNSQLVDTGHQLLDYCSGYVDCIPQTRNKFAFREAVSKLELSLQELQVSSAAAGVPGTNPVLNNLLSCVQEISDVVQR
B6: TYRO3 (protein)
chain: LRKRRKETRFGQAFDSVMARGEPAVHFRAARSFNRERPERIEATLDSLGISDELKEKLEDVLIPEQQFTLGRMLGKGEFGSVREAQLKQEDGSFVKVAVKMLKADIIASSDIEEFLREAACMKEFDHPHVAKLVGVSLRSRAKGRLPIPMVILPFMKHGDLHAFLLASRIGENPFNLPLQTLIRFMVDIACGMEYLSSRNFIHRDLAARNCMLAEDMTVCVADFGLSRKIYSGDYYRQGCASKLPVKWLALESLADNLYTVQSDVWAFGVTMWEIMTRGQTPYAGIENAEIYNYLIGGNRLKQPPECMEDVYDLMYQCWSADPKQRPSFTCLRMELENILGQLSVLSASQDPLYINIERAEEPTAGGSLELPGRDQPYSGAGDGSGMGAVGGTPSDCRYILTPGGLAEQPGQAEHQPESPLNETQRLLLLQQGLLPHSSC
B7: CSK (protein)
chain: MSAIQAAWPSGTECIAKYNFHGTAEQDLPFCKGDVLTIVAVTKDPNWYKAKNKVGREGIIPANYVQKREGVKAGTKLSLMPWFHGKITREQAERLLYPPETGLFLVRESTNYPGDYTLCVSCDGKVEHYRIMYHASKLSIDEEVYFENLMQLVEHYTSDADGLCTRLIKPKVMEGTVAAQDEFYRSGWALNMKELKLLQTIGKGEFGDVMLGDYRGNKVAVKCIKNDATAQAFLAEASVMTQLRHSNLVQLLGVIVEEKGGLYIVTEYMAKGSLVDYLRSRGRSVLGGDCLLKFSLDVCEAMEYLEGNNFVHRDLAARNVLVSEDNVAKVSDFGLTKEASSTQDTGKLPVKWTAPEALREKKFSTKSDVWSFGILLWEIYSFGRVPYPRIPLKDVVPRVEKGYKMDAPDGCPPAVYEVMKNCWHLDAAMRPSFLQLREQLEHIKTHELHL
B8: BMX (protein)
chain: MDTKSILEELLLKRSQQKKKMSPNNYKERLFVLTKTNLSYYEYDKMKRGSRKGSIEIKKIRCVEKVNLEEQTPVERQYPFQIVYKDGLLYVYASNEESRSQWLKALQKEIRGNPHLLVKYHSGFFVDGKFLCCQQSCKAAPGCTLWEAYANLHTAVNEEKHRVPTFPDRVLKIPRAVPVLKMDAPSSSTTLAQYDNESKKNYGSQPPSSSTSLAQYDSNSKKIYGSQPNFNMQYIPREDFPDWWQVRKLKSSSSSEDVASSNQKERNVNHTTSKISWEFPESSSSEEEENLDDYDWFAGNISRSQSEQLLRQKGKEGAFMVRNSSQVGMYTVSLFSKAVNDKKGTVKHYHVHTNAENKLYLAENYCFDSIPKLIHYHQHNSAGMITRLRHPVSTKANKVPDSVSLGNGIWELKREEITLLKELGSGQFGVVQLGKWKGQYDVAVKMIKEGSMSEDEFFQEAQTMMKLSHPKLVKFYGVCSKEYPIYIVTEYISNGCLLNYLRSHGKGLEPSQLLEMCYDVCEGMAFLESHQFIHRDLAARNCLVDRDLCVKVSDFGMTRYVLDDQYVSSVGTKFPVKWSAPEVFHYFKYSSKSDVWAFGILMWEVFSLGKQPYDLYDNSQVVLKVSQGHRLYRPHLASDTIYQIMYSCWHELPEKRPTFQQLLSSIEPLREKDKH
B9: JAK3 (protein)
chain: ISSDYELLSDPTPGALAPRDGLWNGAQLYACQDPTIFEERHLKYISQLGKGNFGSVELCRYDPLGDNTGALVAVKQLQHSGPDQQRDFQREIQILKALHSDFIVKYRGVSYGPGRQSLRLVMEYLPSGCLRDFLQRHRARLDASRLLLYSSQICKGMEYLGSRRCVHRDLAARNILVESEAHVKIADFGLAKLLPLDKDYYVVREPGQSPIFWYAPESLSDNIFSRQSDVWSFGVVLYELFTYCDKSCSPSAEFLRMMGCERDVPALCRLLELLEEGQRLPAPPACPAEVHELMKLCWAPSPQDRPSFSALGPQLDMLWSGSRGCETHAFTAHPEGKHHSLSFS

Biological target: T1, Bovine, dephosphorylated, Myelin Basic …

| Protein | MBP Kinase Activity |
| --- | --- |
| B1 | Weak |
| B2 | Negative |
| B3 | Negative |
| B4 | Strong |
| B5 | Weak |
| B6 | Strong |
| B7 | Negative |
| B8 | Strong |
| B9 | Strong |
